Measurements as given in paper PMC3299833.

Assays:
[1] = target: E. coli expressed recombinant PKM2 (rPKM2) (human) (UniProt P14618); assay: SEC
[2] = target: Pyruvate kinase isoform M2 (PKM2), endogenous (human (endogenous in SW620 and SW480)) (UniProt P14618); assay: SEC

Sequence of E. coli expressed recombinant PKM2 (rPKM2), P14618 1-531 (enzyme; other documents disagree on this pair) (P14618 whole entry): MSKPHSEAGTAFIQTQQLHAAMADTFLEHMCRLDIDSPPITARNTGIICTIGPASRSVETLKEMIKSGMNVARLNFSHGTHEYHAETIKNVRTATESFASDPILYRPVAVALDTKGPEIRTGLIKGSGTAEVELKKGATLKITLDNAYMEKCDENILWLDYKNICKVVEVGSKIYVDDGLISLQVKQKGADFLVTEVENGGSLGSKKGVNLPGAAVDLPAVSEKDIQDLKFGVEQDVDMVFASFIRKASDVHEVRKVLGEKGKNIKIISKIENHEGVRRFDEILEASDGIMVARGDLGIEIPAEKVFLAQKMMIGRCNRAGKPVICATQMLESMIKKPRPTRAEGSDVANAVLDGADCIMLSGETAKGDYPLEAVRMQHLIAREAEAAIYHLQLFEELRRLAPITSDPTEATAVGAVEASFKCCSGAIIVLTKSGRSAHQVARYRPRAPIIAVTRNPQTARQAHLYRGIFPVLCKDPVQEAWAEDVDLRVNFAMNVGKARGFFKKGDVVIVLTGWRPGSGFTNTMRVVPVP
Sequence of Pyruvate kinase isoform M2 (PKM2), endogenous, P14618 1-531 (enzyme; other documents disagree on this pair) (P14618 whole entry, canonical isoform): as the sequence (P14618 whole entry) above

Row | Substance | stoichiometry N [1] | stoichiometry N [2]
1 | E. coli expressed recombinant PKM2 (rPKM2), P14618 1-531 (enzyme; other documents disagree on this pair) | 2 | –
2 | Pyruvate kinase isoform M2 (PKM2), endogenous, P14618 1-531 (enzyme; other documents disagree on this pair) | – | 2
